Assay results: paper PMC3002392

Target: Na+,K+-ATPase α-subunit (endogenous, MDCK cells) (dog (endogenous in MDCK)) (UniProt P50997)
Assay: co-IP

AS160 (endogenous, MDCK cells) (natural protein)
fold increase of co-precipitated AS160 with 40 uM Compound C against vehicle: 7 fold
